The results in this text go back to paper PMC4453921, “Crystal structure of caspase recruiting domain (CARD) of apoptosis repressor with CARD (ARC) and its implication in inhibition of apoptosis” (Scientific Reports, 2015).

The labels stand for the following.
B1: ARC CARD domain (amino acids 1-95), wild type [human] / itself (parent)
chain: MGNAQERPSETIDRERKRLVETLQADSGLLLDALLARGVLTGPEYEALDALPDAERRVRRLLLLVQGKGEAACQELLRCAQRTAGAPDPAWDWQH

In the test the parent is B1. Briefly: SEC-MALS. The conditions noted are these: with itself. For orientation: SEC sorts molecules by how far they enter the pores of the column.
Consider MGNAQERPSETIDRERKRLVETLQADSGLLLDALLARGVLTGPEYEALDALPDAEERVRRLLLLVQGKGEAACQELLRCAQRTAGAPDPAWDWQH [chain 1 R56E], for which the screen value came out at 13.2 kDa.
Then MGNAQERPSETIDRERKRLVETLQADSGLLLDALLARGVLTGPEYEALDALPDAERRVERLLLLVQGKGEAACQELLRCAQRTAGAPDPAWDWQH [chain 1 R59E], with 12 kDa; and MGNAQERPSETIDRERKRLVETLQADSGLLLDALLARGVLTGPEYEALDALPDAEERVERLLLLVQGKGEAACQELLRCAQRTAGAPDPAWDWQH [chain 1 R56E R59E], with 11.8 kDa; and MGNAQERPSETIDRERKRLVETLQADSGLLLDALLARGVLTGPEYEALRALPDAERRVRRLLLLVQGKGEAACQELLRCAQRTAGAPDPAWDWQH [chain 1 D49R], with 13 kDa.
As to MGNAQERPSETIDRERKRLVETLQADSGLLLDALLARGVLTGPEYEALRALPDAERRVERLLLLVQGKGEAACQELLRCAQRTAGAPDPAWDWQH [chain 1 D49R R59E], the screen value worked out at 12.8 kDa.
